Measurements taken from patent publication US20180346564A1 (TEIJIN PHARMA, published 2018).
Changes are numbered by the printed parent chain. [ ]: non-standard residue; d: D form. pT = C[C@@H](OP(=O)(O)O)[C@H](N)C(=O)O; pS = N[C@@H](COP(=O)(O)O)C(=O)O

Tests used:
[1] = biological target: T1, Peptide No. 2, pS199, H-SGYS(pS)PGSPGC-OH (human, SMILES N[C@@H](CO)C(=O)NCC(=O)N[C@@H](Cc1ccc(O)cc1)C(=O)N[C@@H](CO)C(=O)N[C@@H](COP(=O)(O)O)C(=O)N1CCC[C@H]1C(=O)NCC(=O)N[C@@H](CO)C(=O)N1CCC[C@H]1C(=O)NCC(=O)N[C@@H](CS)C(=O)O); assay: ELISA, coated peptide
T1 peptide: H-SGYS[pS]PGSPGC-OH
How it was run: (§1)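 Peptides, or their bovine serum albumin or keyhole limpet hemocyanin conjugates, at 1 μg/mL in cold PBS were coated at 50 μL/well overnight at 4 °C, then blocked with 3% BSA-PBS overnight at 4 °C. Purified antibody at 150 ng/mL in 3% BSA-PBS was bound for 90 minutes at room temperature, followed by alkaline phosphatase-labelled goat anti-human IgG (H+L) (2000-fold, 60 minutes). Binding was read as absorbance at 405 nm (reference 550 nm) after 40 minutes of pNPP development.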

[2] = biological target: T2, Peptide No. 6, pT231, H-KVAVVR(pT)PPKSPS-OH (human); assay: ELISA, coated peptide
T2 peptide: H-KVAVVR[pT]PPKSPS-OH
How it was run: as §1

[3] = biological target: T3, Peptide No. 7, pS396/pS400/pS404, H-GC-RENAKAKTDHGAEIVYK(pS)PVV(pS)GDT(pS)PRHL-OH (human, phosphoserine (pS) at peptide positions 20, 24 and 28 (tau Ser396, Ser400, Ser404)); assay: ELISA, coated peptide
T3 peptide: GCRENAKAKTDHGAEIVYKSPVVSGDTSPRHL
How it was run: as §1

[4] = biological target: T4, Peptide No. 4, pT212/pS214, H-GCGSPGTPGSRSR(pT)P(pS)LPTPPTREPK-OH (human, phosphothreonine (pT) at peptide position 14 (tau Thr212); phosphoserine (pS) at peptide position 16 (tau Ser214)); assay: ELISA, coated peptide
T4 peptide: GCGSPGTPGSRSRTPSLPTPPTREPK
How it was run: as §1

[5] = biological target: T5, Peptide No. 5, pT217, H-GC-GSRSRTPSLP(pT)PPTREPKKVAVV-OH (human, phosphothreonine (pT) at peptide position 13 (tau Thr217)); assay: ELISA, coated peptide
T5 peptide: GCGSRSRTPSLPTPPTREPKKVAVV
How it was run: as §1

[6] = biological target: T6, Peptide No. 1, pS46, H-GLKE(pS)PLQT-OH (human, SMILES CC(C)C[C@H](NC(=O)CN)C(=O)N[C@@H](CCCCN)C(=O)N[C@@H](CCC(=O)O)C(=O)N[C@@H](COP(=O)(O)O)C(=O)N1CCC[C@H]1C(=O)N[C@@H](CC(C)C)C(=O)N[C@@H](CCC(N)=O)C(=O)N[C@H](C(=O)O)[C@@H](C)O); assay: ELISA, coated peptide
T6 peptide: H-GLKE[pS]PLQT-OH
How it was run: as §1

[7] = biological target: T7, Peptide No. 8, pS412, H-NV(pS)STGSC-OH (human, SMILES CC(C)[C@H](NC(=O)[C@@H](N)CC(N)=O)C(=O)N[C@@H](COP(=O)(O)O)C(=O)N[C@@H](CO)C(=O)N[C@H](C(=O)NCC(=O)N[C@@H](CO)C(=O)N[C@@H](CS)C(=O)O)[C@@H](C)O); assay: ELISA, coated peptide
T7 peptide: H-NV[pS]STGSC-OH
How it was run: as §1

[8] = biological target: T8, Peptide No. 3, pS202, H-SSPG(pS)PGTPC-OH (human, SMILES C[C@@H](O)[C@H](NC(=O)CNC(=O)[C@@H]1CCCN1C(=O)[C@H](COP(=O)(O)O)NC(=O)CNC(=O)[C@@H]1CCCN1C(=O)[C@H](CO)NC(=O)[C@@H](N)CO)C(=O)N1CCC[C@H]1C(=O)N[C@@H](CS)C(=O)O); assay: ELISA, coated peptide
T8 peptide: H-SSPG[pS]PGTPC-OH
How it was run: as §1

[9] = biological target: T9, His-tagged non-phosphorylated tau protein 4R0N (human, UniProt P10636 2-758); assay: SPR Biacore T200, antigen immobilized
T9 construct: Produced by Escherichia coli; negative control in SPR; also called ATGen Cat. No. ATGP0795
T9 sequence (P10636 other isoform, or with tags, fused parts or gaps limits assumed): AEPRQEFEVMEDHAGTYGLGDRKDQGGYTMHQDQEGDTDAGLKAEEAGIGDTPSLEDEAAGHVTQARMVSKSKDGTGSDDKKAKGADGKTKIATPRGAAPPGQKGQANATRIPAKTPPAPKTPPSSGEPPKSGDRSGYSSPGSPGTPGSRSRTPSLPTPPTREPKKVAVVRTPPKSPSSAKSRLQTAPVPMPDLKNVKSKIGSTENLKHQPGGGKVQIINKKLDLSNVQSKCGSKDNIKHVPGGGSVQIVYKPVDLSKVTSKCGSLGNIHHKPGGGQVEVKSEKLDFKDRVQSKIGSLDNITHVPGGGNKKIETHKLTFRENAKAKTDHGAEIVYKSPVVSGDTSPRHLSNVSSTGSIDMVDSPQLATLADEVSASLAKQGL
Protocol: The binding affinities of the hyperphosphorylated tau protein 4R2N (hpTau), non-phosphorylated tau protein 4R0N, monophosphorylated tau peptide 1×P, triphosphorylated tau peptide 3×P, and non-phosphorylated tau peptide Non P with each antibody were measured with an SPR system Biacore T200 (GE Healthcare Japan), in accordance with the instruction manual for evaluation attached to the system.
The His-tagged hpTau or Tau proteins were each immobilized on a sensor chip using an HBS-N buffer (code No. BR-1003-69) as the immobilization reaction solution and allowing a nickel chloride solution to react with the NTA sensor chip for bonding Ni to NTA. Subsequently, the sensor chip was activated with a mixed solution of N-ethyl-N′-(3-dimethylaminopropyl)-carbodiimide hydrochloride (1-ethyl-3-(3-dimethylaminopropyl)carbodiimide hydrochloride: EDC) and N-hydroxysuccinimide (NHS). A solution of each of the His-tagged proteins, adjusted to a concentration of 100 to 500 ng/mL with a 4-(2-hydroxyethyl)-1-piperazineethanesulfonic acid (HEPES) buffer (0.01 M HEPES, 150 mM KCl, 2 mM DTT, 1 mM EDTA, pH 7.2), was applied to the sensor chip, whereby the protein was immobilized on the sensor chip through covalent bonds with the Ni-NTA. The remaining active NHS was blocked with ethanolamine, and Ni ions were removed with an EDTA solution (Ni-affinity amine coupling: see International Publication No. WO2005/022156). The antigen peptides (1×P, 3×P, and Non P) were each immobilized on a sensor chip by activating the NTA sensor chip with a mixed solution of N-ethyl-N′-(3-dimethylaminopropyl)-carbodiimide (EDC) hydrochloride and N-hydroxysuccinimide (NHS), and then applying a solution of the antigen peptide diluted with a 10 mM sodium acetate buffer (pH: 4 to 4.5) to 1 to 10 μM to the sensor chip, whereby the peptide was covalently bound to the sensor chip. The remaining active NHS was blocked with ethanolamine. Thus, sensor chips immobilized respectively with the proteins and peptides mentioned above were produced.
A CAPS buffer (pH 10.5) was applied to these sensor chips at 37° C. to stabilize the protein- or peptide-immobilized surfaces of the sensor chips.

B1: humanized antibody L46H11 (antibody, human IgG1, kappa)
heavy: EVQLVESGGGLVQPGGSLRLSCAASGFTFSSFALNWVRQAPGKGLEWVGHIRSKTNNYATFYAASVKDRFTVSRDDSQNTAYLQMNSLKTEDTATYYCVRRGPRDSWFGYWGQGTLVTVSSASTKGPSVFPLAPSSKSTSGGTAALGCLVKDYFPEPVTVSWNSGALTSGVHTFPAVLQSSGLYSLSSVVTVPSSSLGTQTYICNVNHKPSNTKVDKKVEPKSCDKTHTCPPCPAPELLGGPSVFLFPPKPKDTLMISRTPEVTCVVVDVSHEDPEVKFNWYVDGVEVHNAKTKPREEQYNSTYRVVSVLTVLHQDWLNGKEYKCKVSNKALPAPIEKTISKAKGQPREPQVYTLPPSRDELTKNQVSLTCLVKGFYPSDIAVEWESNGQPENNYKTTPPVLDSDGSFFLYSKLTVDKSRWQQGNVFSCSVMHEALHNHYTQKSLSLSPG
light: DIVMTQSPLSLPVTLGEPASISCRSSQSIVHSNGNTYLEWYLQKPGQSPQLLIYTVSNRFSGVPDRFSGSGSGTDFTLKISRVEAEDLGVYYCFQGSHLPLTFGGGTKVEIKRTVAAPSVFIFPPSDEQLKSGTASVVCLLNNFYPREAKVQWKVDNALQSGNSQESVTEQDSKDSTYSLSSTLTLSKADYEKHKVYACEVTHQGLSSPVTKSFNRGEC
B1: no binding (tested: OD value <0.5; antibody 150 ng/mL) [1]; no binding (tested: OD value <0.5; antibody 150 ng/mL) [2]; no binding (tested: OD value <0.5; antibody 150 ng/mL) [3]. B1: no binding (tested: OD value <0.5; antibody 150 ng/mL) [4]; no binding (tested: OD value <0.5; antibody 150 ng/mL) [5]; no binding (tested: OD value <0.5; antibody 150 ng/mL) [6]. B1: no binding (tested: OD value <0.5; antibody 150 ng/mL) [7]; no binding (tested: OD value <0.5; antibody 150 ng/mL) [8]; no binding (tested: 0.2 to 1 nM) [9].

B2: humanized antibody L48H12 (antibody, human IgG1, kappa, V domains shown)
VH: EVQLVESGGGLVQPGGSLRLSCAASGFAFNSFALNWVRQAPGKGLEWVGHIRSKTNNYATFYADSVKDRFTVSRDDSKNTAYLQMNSLKTEDTATYYCVRRGPRDSWFGYWGQGTLVTVSS
VL: DIVMTQSPLSLPVTLGDPASISCRSSQNIVHSNGNTYLEWYQQKPGQSPQLLIYTVSNRFSGVPDRFSGSGSGTDFTLKISRVEAEDLGVYYCFQGSHLPLTFGGGTKVEIKR
notes: VL48/VH12, human IgG1/kappa
B2: no binding (tested: OD value <0.5; antibody 150 ng/mL) [1]; no binding (tested: OD value <0.5; antibody 150 ng/mL) [2]; no binding (tested: OD value <0.5; antibody 150 ng/mL) [3]. B2: no binding (tested: OD value <0.5; antibody 150 ng/mL) [4]; no binding (tested: OD value <0.5; antibody 150 ng/mL) [5]; no binding (tested: OD value <0.5; antibody 150 ng/mL) [6]. B2: no binding (tested: OD value <0.5; antibody 150 ng/mL) [7]; no binding (tested: OD value <0.5; antibody 150 ng/mL) [8]; no binding (tested: 0.2 to 1 nM) [9].

B3: humanized antibody L48H61 (antibody, human IgG1, kappa, V domains shown)
VH: B2 VH with A28T, G49V
VL: B2 VL
notes: VL48/VH61, human IgG1/kappa
B3: no binding (tested: OD value <0.5; antibody 150 ng/mL) [1]; no binding (tested: OD value <0.5; antibody 150 ng/mL) [2]; no binding (tested: OD value <0.5; antibody 150 ng/mL) [3]. B3: no binding (tested: OD value <0.5; antibody 150 ng/mL) [4]; no binding (tested: OD value <0.5; antibody 150 ng/mL) [5]; no binding (tested: OD value <0.5; antibody 150 ng/mL) [6]. B3: no binding (tested: OD value <0.5; antibody 150 ng/mL) [7]; no binding (tested: OD value <0.5; antibody 150 ng/mL) [8]; no binding (tested: 0.2 to 1 nM) [9].

B4: humanized antibody L48H47 (antibody, human IgG1, kappa, V domains shown)
VH: B2 VH with D64A, K78Q
VL: B2 VL
notes: VL48/VH47, human IgG1/kappa
B4: no binding (tested: OD value <0.5; antibody 150 ng/mL) [1]; no binding (tested: OD value <0.5; antibody 150 ng/mL) [2]; no binding (tested: OD value <0.5; antibody 150 ng/mL) [3]. B4: no binding (tested: OD value <0.5; antibody 150 ng/mL) [4]; no binding (tested: OD value <0.5; antibody 150 ng/mL) [5]; no binding (tested: OD value <0.5; antibody 150 ng/mL) [6]. B4: no binding (tested: OD value <0.5; antibody 150 ng/mL) [7]; no binding (tested: OD value <0.5; antibody 150 ng/mL) [8]; no binding (tested: 0.2 to 1 nM) [9].

B5: humanized antibody L47H11 (antibody, human IgG1, kappa, V domains shown)
VH: B2 VH with A28T, N30S, D64A, K78Q
VL: B2 VL with N28S, L51R
notes: VL47/VH11, human IgG1/kappa
B5: no binding (tested: OD value <0.5; antibody 150 ng/mL) [1]; no binding (tested: OD value <0.5; antibody 150 ng/mL) [2]; no binding (tested: OD value <0.5; antibody 150 ng/mL) [3]. B5: no binding (tested: OD value <0.5; antibody 150 ng/mL) [4]; no binding (tested: OD value <0.5; antibody 150 ng/mL) [5]; no binding (tested: OD value <0.5; antibody 150 ng/mL) [6]. B5: no binding (tested: OD value <0.5; antibody 150 ng/mL) [7]; no binding (tested: OD value <0.5; antibody 150 ng/mL) [8]; no binding (tested: 0.2 to 1 nM) [9].

B6: humanized antibody L47H65 (antibody, human IgG1, kappa, V domains shown)
VH: B2 VH with G49V, D64A, K78Q
VL: B2 VL with N28S, L51R
B6: no binding (tested: OD value <0.5; antibody 150 ng/mL) [1]; no binding (tested: OD value <0.5; antibody 150 ng/mL) [2]; no binding (tested: OD value <0.5; antibody 150 ng/mL) [3]. B6: no binding (tested: OD value <0.5; antibody 150 ng/mL) [4]; no binding (tested: OD value <0.5; antibody 150 ng/mL) [5]; no binding (tested: OD value <0.5; antibody 150 ng/mL) [6]. B6: no binding (tested: OD value <0.5; antibody 150 ng/mL) [7]; no binding (tested: OD value <0.5; antibody 150 ng/mL) [8]; no binding (tested: 0.2 to 1 nM) [9].
